Target: T1, GST (glutathione S-transferase) alone (UniProt P08515 1-218 = GST)
T1 construct: Control probe in the west western blots
Test: west western blot of his-tagged WTIP fragments (E. coli lysate) probed with GST

T1 sequence (P08515 whole entry): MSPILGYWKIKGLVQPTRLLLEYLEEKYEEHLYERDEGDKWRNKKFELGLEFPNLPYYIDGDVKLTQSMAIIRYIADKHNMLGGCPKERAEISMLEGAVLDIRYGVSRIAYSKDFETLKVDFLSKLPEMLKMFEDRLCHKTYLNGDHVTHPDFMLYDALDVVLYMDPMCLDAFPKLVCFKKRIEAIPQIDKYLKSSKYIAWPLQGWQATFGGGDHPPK

B1: WTIP 1-178, polypeptide containing the WW domain at the N-terminal end of WTIP with a histidine tag at the C-terminal (other)
chain: MRPGTGAERGGLMVSEMESHPPSQGPGDGERRLSGSSLCSGSWVSADGFLRRRPSMGHPGMHYAPMGMHPMGQRANMPPVPHGMMPQMMPPMGGPPMGQMPGMMSSVMPGMMMSHMSQASMQPALPPGVNSMDVAAGTASGAKSMWTEHKSPDGRTYYYNTETKQSTWEKPDDLKTPA
notes: Expressed in E. coli; whole-cell lysate run on SDS-PAGE and blotted; not shown: C-terminal his tag and XhoI junction residues from pET-21b(+)
Q: Does B1 bind?
A: Result: no binding

B2: WTIP 1-98, polypeptide containing no WW domains with a histidine tag at the C-terminal (other)
chain: MRPGTGAERGGLMVSEMESHPPSQGPGDGERRLSGSSLCSGSWVSADGFLRRRPSMGHPGMHYAPMGMHPMGQRANMPPVPHGMMPQMMPPMGGPPMG
notes: Expressed in E. coli; whole-cell lysate run on SDS-PAGE and blotted; also called HYPA/FBP11 amino acids 1-98; mutant containing no WW domain; not shown: C-terminal his tag and XhoI junction residues from pET-21b(+)
Q: Does B2 bind?
A: Result: no binding
